6 sequences from PMC5900569 can be followed below.

For orientation: Kd means the concentration at which binding is half-saturated. A high value points to weaker binding.

In one series the test system is cTSN (Tudor staphylococcal nuclease) (Caenorhabditis elegans). As to the kind of experiment: filter binding. The conditions noted are these: 50 mM HEPES pH 7.0, 250 mM NaCl, 5 mM beta-mercaptoethanol, 2 mM EDTA, 30 min, room temperature; cTSN 0-2 uM.
As to “ACUGGACAAAUACUCCGAGG / CCUCGGAGUAUUUGUCCAGU [dsRNA 20 bp]”, the dissociation constant Kd came to 393 nM.
On the same count and under the same terms, as for ACUGGACAAAUACUCCGAGG [ssRNA 20 nt], the figure is 767 nM.
Sequence “CAGUCACCCAUAAAGUAGAAAGCACUAC / GUAGUGUUUCCUACUUUAUGGAUGAGUG [pre-miR142Δloop]” gave a Kd of 236 nM.
Consider “CAGUCACCCAUAAAGUAGAAAGCACUACUGUGGGUAGUGUUUCCUACUUUAUGGAUGAGUG [pre-miR142]”, for which the Kd is 136 nM.

The same series, now with this note: inosine (A-to-I edited, positions in Figure 3); 50 mM HEPES pH 7.0, 250 mM NaCl, 5 mM beta-mercaptoethanol, 2 mM EDTA, 30 min, room temperature; cTSN 0-2 uM.
For “CAGUCACCCAUAAAGUAGAAAGCACUAC / GUAGUGUUUCCUACUUUAUGGAUGAGUG [pre-miR142Δloop-AtoI]”, the Kd came out at 68.3 nM.
Same read-out and setting: as for “CAGUCACCCAUAAAGUAGAAAGCACUACUGUGGGUAGUGUUUCCUACUUUAUGGAUGAGUG [pre-miR142-AtoI]”, the figure is 74.6 nM.
